Consider two substances from patent US20050215472A1.

“And” between values parts separate entries of the source, which are not always exact repeats. Equal values may be shown once.

Assay [1] has as its target prostate specific membrane antigen (PSMA), full-length human (human) (UniProt Q04609). In words: cell-based or functional assay.
Assay [2] shares this target. In words: cell-bound fraction of 111In mAb, average.
The target is the same in assay [3]. In words: cell-bound fraction of 111In mAb, PSMA-3T3 cells.

prostate specific membrane antigen (PSMA), full-length human (human), sequence (Q04609 whole entry): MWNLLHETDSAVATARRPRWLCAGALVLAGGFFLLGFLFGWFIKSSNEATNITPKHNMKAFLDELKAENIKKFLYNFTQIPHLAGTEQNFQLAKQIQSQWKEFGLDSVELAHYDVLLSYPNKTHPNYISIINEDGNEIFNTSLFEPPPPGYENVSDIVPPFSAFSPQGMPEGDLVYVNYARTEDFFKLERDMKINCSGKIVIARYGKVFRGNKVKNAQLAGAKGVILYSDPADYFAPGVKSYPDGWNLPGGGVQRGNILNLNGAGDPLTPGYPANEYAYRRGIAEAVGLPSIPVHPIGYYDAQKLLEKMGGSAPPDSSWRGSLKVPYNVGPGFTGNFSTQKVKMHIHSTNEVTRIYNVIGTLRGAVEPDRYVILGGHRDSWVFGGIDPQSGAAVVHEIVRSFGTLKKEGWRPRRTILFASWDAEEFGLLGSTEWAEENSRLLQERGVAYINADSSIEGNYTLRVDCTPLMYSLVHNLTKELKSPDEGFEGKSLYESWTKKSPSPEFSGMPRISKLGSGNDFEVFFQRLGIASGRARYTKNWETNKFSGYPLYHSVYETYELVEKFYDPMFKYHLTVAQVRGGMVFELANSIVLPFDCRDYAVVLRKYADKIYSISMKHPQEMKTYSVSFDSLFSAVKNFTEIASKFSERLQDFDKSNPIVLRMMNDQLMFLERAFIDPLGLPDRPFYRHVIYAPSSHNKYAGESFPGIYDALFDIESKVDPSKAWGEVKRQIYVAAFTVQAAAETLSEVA

Take mAb J591 (antibody): in assay [1], the LD50, immunotoxin (Mab-Zap saporin) cytotoxicity on C4-2 cells stood at 88.2 pM and the LD50, immunotoxin (Mab-Zap saporin) cytotoxicity on PSMA-3T3 cells turned out to be 89 pM.
For the substance “111In radiolabeled CHX-A''-DTPA mJ591 (antibody)”, in assay [2], the Immunoreactivity (%), average worked out at 56.7%. Moreover, the Immunoreactivity (%) in assay [3] is 58.5% and 54.9%.
